Measured values reported in patent publication US20210388087A1 (Chugai, published 2021).
Changes are numbered by the printed parent chain. In names and notes the source's numbering stands.

B1: H183/L072 VH A60W (antibody, name in Kabat numbering, V domains shown)
VH: QVQLVESGGGLVQPGRSLRLSCAASGFTFSNAWMHWVRQAPGKGLEWVAQIKDKGNAYAAYYWPSVKGRFTISRDDSKNSIYLQMNSLKTEDTAVYYCHYVHYASASTVLPAFGVDAWGQGTTVTVSS
VL: DIVMTQSPLSLPVTPGEPASISCQASQELVHMNRNTYLHWYQQKPGQAPRLLIYKVSNRFPGVPDRFSGSGSGTDFTLKISRVEAEDVGVYYCAQGTSVPFTFGQGTKLEIK
B2: H183/L072 VH F27G (antibody, name in Kabat numbering, V domains shown)
VH: B1 VH with F27G, W63A
VL: B1 VL
B3: H183/L072 VH A98M (antibody, name in Kabat numbering, V domains shown)
VH: B1 VH with W63A, A104M
VL: B1 VL
B4: H183/L072 VH F27M (antibody, name in Kabat numbering, V domains shown)
VH: B1 VH with F27M, W63A
VL: B1 VL
B5: H183/L072 VH D101M (antibody, name in Kabat numbering, V domains shown)
VH: B1 VH with W63A, D116M
VL: B1 VL
B6: H183/L072 VH A100I (antibody, name in Kabat numbering, V domains shown)
VH: B1 VH with W63A, A106I
VL: B1 VL
B7: H183/L072 VH A100L (antibody, name in Kabat numbering, V domains shown)
VH: B1 VH with W63A, A106L
VL: B1 VL
B8: H183/L072 VH D101A (antibody, name in Kabat numbering, V domains shown)
VH: B1 VH with W63A, D116A
VL: B1 VL
B9: H183/L072 VH A60Y (antibody, name in Kabat numbering, V domains shown)
VH: B1 VH with W63Y
VL: B1 VL
B10: H183/L072 VH A100fL (antibody, name in Kabat numbering, V domains shown)
VH: B1 VH with W63A, A112L
VL: B1 VL
B11: H183/L072 VH A102I (antibody, name in Kabat numbering, V domains shown)
VH: B1 VH with W63A, A117I
VL: B1 VL
B12: H183/L072 VH F27H (antibody, name in Kabat numbering, V domains shown)
VH: B1 VH with F27H, W63A
VL: B1 VL
B13: H183/L072 VH A102M (antibody, name in Kabat numbering, V domains shown)
VH: B1 VH with W63A, A117M
VL: B1 VL
B14: H183/L072 VH A100fP (antibody, name in Kabat numbering, V domains shown)
VH: B1 VH with W63A, A112P
VL: B1 VL
B15: H183/L072 VH D101L (antibody, name in Kabat numbering, V domains shown)
VH: B1 VH with W63A, D116L
VL: B1 VL
B16: H183/L072 VH A98I (antibody, name in Kabat numbering, V domains shown)
VH: B1 VH with W63A, A104I
VL: B1 VL
B17: H183/L072 VH A100P (antibody, name in Kabat numbering, V domains shown)
VH: B1 VH with W63A, A106P
VL: B1 VL
B18: H183/L072 VH F27K (antibody, name in Kabat numbering, V domains shown)
VH: B1 VH with F27K, W63A
VL: B1 VL
B19: H183/L072 VH A102L (antibody, name in Kabat numbering, V domains shown)
VH: B1 VH with W63A, A117L
VL: B1 VL
B20: H183/L072 VH F27N (antibody, name in Kabat numbering, V domains shown)
VH: B1 VH with F27N, W63A
VL: B1 VL
B21: H183/L072 VH D52aY (antibody, name in Kabat numbering, V domains shown)
VH: B1 VH with D53Y, W63A
VL: B1 VL
B22: H183/L072 VH F27L (antibody, name in Kabat numbering, V domains shown)
VH: B1 VH with F27L, W63A
VL: B1 VL
B23: H183/L072 VH A100fI (antibody, name in Kabat numbering, V domains shown)
VH: B1 VH with W63A, A112I
VL: B1 VL
B24: H183/L072 VH A100M (antibody, name in Kabat numbering, V domains shown)
VH: B1 VH with W63A, A106M
VL: B1 VL
B25: H183/L072 VH D101I (antibody, name in Kabat numbering, V domains shown)
VH: B1 VH with W63A, D116I
VL: B1 VL
B26: H183/L072 VH F27E (antibody, name in Kabat numbering, V domains shown)
VH: B1 VH with F27E, W63A
VL: B1 VL
B27: H183/L072 VH A98L (antibody, name in Kabat numbering, V domains shown)
VH: B1 VH with W63A, A104L
VL: B1 VL
B28: H183/L072 VH F27P (antibody, name in Kabat numbering, V domains shown)
VH: B1 VH with F27P, W63A
VL: B1 VL
B29: H183/L072 VH F27Q (antibody, name in Kabat numbering, V domains shown)
VH: B1 VH with F27Q, W63A
VL: B1 VL
B30: H183/L072 VH A98P (antibody, name in Kabat numbering, V domains shown)
VH: B1 VH with W63A, A104P
VL: B1 VL
B31: H183/L072 VH F27D (antibody, name in Kabat numbering, V domains shown)
VH: B1 VH with F27D, W63A
VL: B1 VL
B32: H183/L072 VH A100fM (antibody, name in Kabat numbering, V domains shown)
VH: B1 VH with W63A, A112M
VL: B1 VL
B33: H183/L072 VH F27R (antibody, name in Kabat numbering, V domains shown)
VH: B1 VH with F27R, W63A
VL: B1 VL

Biological target: T1, Human CD137 ECD (human)
T1 construct: also called 4-1BB
Assay: single mutant vs template dBBDu183H

T1 sequence (chain, as listed by the source limits assumed): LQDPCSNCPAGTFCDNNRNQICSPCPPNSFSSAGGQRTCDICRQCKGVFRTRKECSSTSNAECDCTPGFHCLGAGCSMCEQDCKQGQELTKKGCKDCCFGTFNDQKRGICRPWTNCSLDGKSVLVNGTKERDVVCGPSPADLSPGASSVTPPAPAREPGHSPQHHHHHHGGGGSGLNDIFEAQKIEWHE

| fold change of affinity [fold] | Binder |
| --- | --- |
| 0.9 | B1 |
| 0.4 | B2 |
| 0 | B3 |
| 0.9 | B4 |
| 0 | B5 |
| 0 | B6 |
| 0 | B7 |
| 2 | B8 |
| 1.2 | B9 |
| 0 | B10 |
| 0 | B11 |
| 0.3 | B12 |
| 0 | B13 |
| 0.3 | B14 |
| 0 | B15 |
| 0 | B16 |
| 0.3 | B17 |

| fold change of affinity [fold] | Binder |
| --- | --- |
| 0.2 | B18 |
| 0.9 | B19 |
| 0.3 | B20 |
| 0 | B21 |
| 0.5 | B22 |
| 0 | B23 |
| 0.7 | B24 |
| 0 | B25 |
| 0.2 | B26 |
| 0 | B27 |
| 0.3 | B28 |
| 0.2 | B29 |
| 0 | B30 |
| 0.5 | B31 |
| 0 | B32 |
| 0.2 | B33 |
